Laboratory results from publication PMC10450677, “CD44 acts as a coreceptor for cell-specific enhancement of signaling and regulatory T cell induction by TGM1, a parasite TGF-β mimic” (Proceedings of the National Academy of Sciences of the …, 2023).

Tests used:
[1] = molecular target: T1, TGM1 D4/5 (domains 4 and 5) (Heligmosomoides polygyrus, UniProt A0A2D1LW19 1-422, 125I (chloramine T) in the cross-linking assays; biotin (EZ-Link Sulfo-NHS-LC-Biotin) in the pull-downs; Alexa Fluor 488 in flow cytometry; no label named for ITC); test: ITC; CD44 in the syringe, TGM1 protein in the cell; 25 mM sodium phosphate, 50 mM NaCl, pH 6.0, 35 °C; 1:1 binding model, global fit of two replicates; details: both partners purified
T1 construct: TGM1, Heligmosomoides polygyrus, GenBank MG099712, domains 4 and 5; D1/2/3 ends at aa 262 and the protein at aa 422; also called TGM1-D4/5-biotin; source: recombinant, purified
T1 sequence: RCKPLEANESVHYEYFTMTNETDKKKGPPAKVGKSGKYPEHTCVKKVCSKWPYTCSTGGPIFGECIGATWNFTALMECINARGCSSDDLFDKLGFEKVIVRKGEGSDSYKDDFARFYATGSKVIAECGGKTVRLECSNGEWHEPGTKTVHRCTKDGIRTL

[2] = molecular target: T2, TGM1 full-length (D1/2/3/4/5), aa 19-422 (Heligmosomoides polygyrus, UniProt A0A2D1LW19 19-422, 125I (chloramine T) in the cross-linking assays; biotin (EZ-Link Sulfo-NHS-LC-Biotin) in the pull-downs; Alexa Fluor 488 in flow cytometry; no label named for ITC); test: as above; details: both partners purified
T2 construct: TGF-β mimic TGM1, Heligmosomoides polygyrus, GenBank MG099712 (422-aa protein), aa 19-422, omitting the parasite-encoded signal peptide; also called TGM1-FL; FL; source: HEK293 (pSecTag2A), purified (HiTrap nickel chelating, Superdex 75 as needed)
T2 sequence: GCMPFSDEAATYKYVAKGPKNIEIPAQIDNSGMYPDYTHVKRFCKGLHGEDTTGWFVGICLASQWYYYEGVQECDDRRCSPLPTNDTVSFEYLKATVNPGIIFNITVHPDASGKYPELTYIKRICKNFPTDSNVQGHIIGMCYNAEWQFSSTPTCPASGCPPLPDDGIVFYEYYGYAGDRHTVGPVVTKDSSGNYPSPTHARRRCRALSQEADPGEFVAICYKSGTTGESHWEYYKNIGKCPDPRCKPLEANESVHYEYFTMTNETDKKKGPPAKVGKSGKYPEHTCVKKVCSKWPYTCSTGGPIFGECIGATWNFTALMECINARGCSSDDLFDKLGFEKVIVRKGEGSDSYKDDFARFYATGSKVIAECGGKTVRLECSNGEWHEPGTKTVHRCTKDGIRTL

B1: mouse CD44 hyaluronan binding domain, aa 23-174 (domain or fragment, UniProt P15379 23-174, looked up)
chain: QIDLNVTCRYAGVFHVEKNGRYSISRTEAADLCQAFNSTLPTMDQMKLALSKGFETCRYGFIEGNVVIPRIHPNAICAANHTGVYILVTSNTSHYDTYCFNASAPPEEDCTSVTDLPNSFDGPVTITIVNRDGTRYSKKGEYRTHQEDIDAS
notes: also called mCD44; murine CD44; source: HEK293 (pcDNA3.1+), purified (HiTrap nickel chelating, Superdex 75 as needed)
- Kd [1]: 62 nM
- dH [1]: -19.4 kcal/mol
- stoichiometry N [1]: 1.4
- Kd [2]: 64 nM
- dH [2]: -17.5 kcal/mol
- stoichiometry N [2]: 0.8

B2: human CD44 hyaluronan binding domain, aa 21-169 (domain or fragment, UniProt P16070 21-169, looked up)
chain: QIDLNITCRFAGVFHVEKNGRYSISRTEAADLCKAFNSTLPTMAQMEKALSIGFETCRYGFIEGHVVIPRIHPNSICAANNTGVYILTSNTSQYDTYCFNASAPPEEDCTSVTDLPNAFDGPITITIVNRDGTRYVQKGEYRTNPEDIY
notes: also called hCD44; source: HEK293 (pcDNA3.1+), purified (HiTrap nickel chelating, Superdex 75 as needed)
- Kd [1]: 140 nM
- dH [1]: -9.6 kcal/mol
- stoichiometry N [1]: 1.2
- Kd [2]: 92 nM
- dH [2]: -10.3 kcal/mol
- stoichiometry N [2]: 1.2
